Biological target: full-length SARS-CoV-2 spike protein (residues 13-1273 of UniProtKB P0DTC2) fused to green fluoresce (SARS-CoV-2) (UniProt P0DTC2)
Experiment: flow cytometry on cells

Chain of recombinant ACE2-Fc fusion protein (residue Gln18-Ser760 fused to human Fc) (Q9BYF1 18-740 limits assumed): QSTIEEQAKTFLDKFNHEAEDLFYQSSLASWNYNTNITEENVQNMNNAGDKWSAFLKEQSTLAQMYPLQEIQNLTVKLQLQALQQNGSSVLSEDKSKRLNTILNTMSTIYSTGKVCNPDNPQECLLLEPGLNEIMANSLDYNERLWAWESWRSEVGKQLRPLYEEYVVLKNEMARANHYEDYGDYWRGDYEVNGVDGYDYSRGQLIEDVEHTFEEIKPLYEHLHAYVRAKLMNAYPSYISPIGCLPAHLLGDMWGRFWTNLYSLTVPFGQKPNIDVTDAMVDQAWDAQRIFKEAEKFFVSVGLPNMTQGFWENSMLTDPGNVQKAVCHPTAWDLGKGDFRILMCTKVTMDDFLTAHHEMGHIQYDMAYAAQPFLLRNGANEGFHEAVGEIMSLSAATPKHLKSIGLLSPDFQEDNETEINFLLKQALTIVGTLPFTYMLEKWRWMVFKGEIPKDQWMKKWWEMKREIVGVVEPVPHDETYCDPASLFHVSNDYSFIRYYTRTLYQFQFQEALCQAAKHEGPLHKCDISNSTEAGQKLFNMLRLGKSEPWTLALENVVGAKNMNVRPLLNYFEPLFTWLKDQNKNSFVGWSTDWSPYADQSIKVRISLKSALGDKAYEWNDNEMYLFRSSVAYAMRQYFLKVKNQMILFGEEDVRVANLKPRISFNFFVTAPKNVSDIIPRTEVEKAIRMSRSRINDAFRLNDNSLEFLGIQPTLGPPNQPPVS

recombinant ACE2-Fc fusion protein (residue Gln18-Ser760 fused to human Fc)
Kd: 10.9 nM
